Measurements published in patent US20230407373A1 (priority 2020, published 2023).
Like-named read-outs stand apart in the source and are kept apart here.

B1: TIAL1: host protein, UniProt Q01085 (protein, UniProt Q01085 1-375, looked up)
Nucleolysin TIAR: MMEDDGQPRTLYVGNLSRDVTEVLILQLFSQIGPCKSCKMITEHTSNDPYCFVEFYEHRDAAAALAAMNGRKILGKEVKVNWATTPSSQKKDTSNHFHVFVGDLSPEITTEDIKSAFAPFGKISDARVVKDMATGKSKGYGFVSFYNKLDAENAIVHMGGQWLGGRQIRTNWATRKPPAPKSTQENNTKQLRFEDVVNQSSPKNCTVYCGGIASGLTDQLMRQTFSPFGQIMEIRVFPEKGYSFVRFSTHESAAHAIVSVNGTTIEGHVVKCYWGKESPDMTKNFQQVDYSQWGQWSQVYGNPQQYGQYMANGWQVPPYGVYGQPWNQQGFGVDQSPSAAWMGGFGAQPPQGQAPPPVIPPPNQAGYGMASYQTQ
B2: CIRBP: host protein, UniProt Q14011 (protein, UniProt Q14011 1-172, looked up)
Cold-inducible RNA-binding …: MASDEGKLFVGGLSFDTNEQSLEQVFSKYGQISEVVVVKDRETQRSRGFGFVTFENIDDAKDAMMAMNGKSVDGRQIRVDQAGKSSDNRSRGYRGGSAGGRGFFRGGRGRGRGFSRGGGDRGYGGNRFESRSGGYGGSRDYYSSRSQSGGYSDRSSGGSYRDSYDSYATHNE
B3: DAZAP1: host protein, UniProt Q96EP5 (protein, UniProt Q96EP5 1-407, looked up)
DAZ-associated protein 1: MNNSGADEIGKLFVGGLDWSTTQETLRSYFSQYGEVVDCVIMKDKTTNQSRGFGFVKFKDPNCVGTVLASRPHTLDGRNIDPKPCTPRGMQPERTRPKEGWQKGPRSDNSKSNKIFVGGIPHNCGETELREYFKKFGVVTEVVMIYDAEKQRPRGFGFITFEDEQSVDQAVNMHFHDIMGKKVEVKRAEPRDSKSQAPGQPGASQWGSRVVPNAANGWAGQPPPTWQQGYGPQGMWVPAGQAIGGYGPPPAGRGAPPPPPPFTSYIVSTPPGGFPPPQGFPQGYGAPPQFSFGYGPPPPPPDQFAPPGVPPPPATPGAAPLAFPPPPSQAAPDMSKPPTAQPDFPYGQYAGYGQDLSGFGQGFSDPSQQPPSYGGPSVPGSGGPPAGGSGFGRGQNHNVQGFHPYRR
B4: HNRNPH1 (protein, UniProt P31943 1-449, looked up)
Heterogeneous nuclear …: MMLGTEGGEGFVVKVRGLPWSCSADEVQRFFSDCKIQNGAQGIRFIYTREGRPSGEAFVELESEDEVKLALKKDRETMGHRYVEVFKSNNVEMDWVLKHTGPNSPDTANDGFVRLRGLPFGCSKEEIVQFFSGLEIVPNGITLPVDFQGRSTGEAFVQFASQEIAEKALKKHKERIGHRYIEIFKSSRAEVRTHYDPPRKLMAMQRPGPYDRPGAGRGYNSIGRGAGFERMRRGAYGGGYGGYDDYNGYNDGYGFGSDRFGRDLNYCFSGMSDHRYGDGGSTFQSTTGHCVHMRGLPYRATENDIYNFFSPLNPVRVHIEIGPDGRVTGEADVEFATHEDAVAAMSKDKANMQHRYVELFLNSTAGASGGAYEHRYVELFLNSTAGASGGAYGSQMMGGMGLSNQSSYGGPASQQLSGGYGGGYGGQSSMSGYDQVLQENSSDFQSNIA
B5: HNRNPA0 (protein, UniProt Q13151 1-305, looked up)
Heterogeneous nuclear …: MENSQLCKLFIGGLNVQTSESGLRGHFEAFGTLTDCVVVVNPQTKRSRCFGFVTYSNVEEADAAMAASPHAVDGNTVELKRAVSREDSARPGAHAKVKKLFVGGLKGDVAEGDLIEHFSQFGTVEKAEIIADKQSGKKRGFGFVYFQNHDAADKAAVVKFHPIQGHRVEVKKAVPKEDIYSGGGGGGSRSSRGGRGGRGRGGGRDQNGLSKGGGGGYNSYGGYGGGGGGGYNAYGGGGGGSSYGGSDYGNGFGGFGSYSQHQSSYGPMKSGGGGGGGGSSWGGRSNSGPYRGGYGGGGGYGGSSF
B6: RBM47: host protein, UniProt A0AV96 (protein, UniProt A0AV96 1-593, looked up)
RNA-binding protein 47: MTAEDSTAAMSSDSAAGSSAKVPEGVAGAPNEAALLALMERTGYSMVQENGQRKYGGPPPGWEGPHPQRGCEVFVGKIPRDVYEDELVPVFEAVGRIYELRLMMDFDGKNRGYAFVMYCHKHEAKRAVRELNNYEIRPGRLLGVCCSVDNCRLFIGGIPKMKKREEILEEIAKVTEGVLDVIVYASAADKMKNRGFAFVEYESHRAAAMARRKLMPGRIQLWGHQIAVDWAEPEIDVDEDVMETVKILYVRNLMIETTEDTIKKSFGQFNPGCVERVKKIRDYAFVHFTSREDAVHAMNNLNGTELEGSCLEVTLAKPVDKEQYSRYQKAARGGGAAEAAQQPSYVYSCDPYTLAYYGYPYNALIGPNRDYFVKAGSIRGRGRGAAGNRAPGPRGSYLGGYSAGRGIYSRYHEGKGKQQEKGYELVPNLEIPTVNPVAIKPGTVAIPAIGAQYSMFPAAPAPKMIEDGKIHTVEHMISPIAVQPDPASAAAAAAAAAAAAAAVIPTVSTPPPFQGRPITPVYTVAPNVQRIPTAGIYGASYVPFAAPATATIATLQKNAAAAAAMYGGYAGYIPQAFPAAAIQVPIPDVYQTY
B7: TRA2B: host protein, UniProt P62995 (protein, UniProt P62995 2-288, looked up)
Transformer-2 protein homolog …: SDSGEQNYGERESRSASRSGSAHGSGKSARHTPARSRSKEDSRRSRSKSRSRSESRSRSRRSSRRHYTRSRSRSRSHRRSRSRSYSRDYRRRHSHSHSPMSTRRRHVGNRANPDPNCCLGVFGLSLYTTERDLREVFSKYGPIADVSIVYDQQSRRSRGFAFVYFENVDDAKEAKERANGMELDGRRIRVDFSITKRPHTPTPGIYMGRPTYGSSRRRDYYDRGYDRGYDDRDYYSRSYRGGGGGGGGWRAAQDRDQIYRRRSPSPYYSRGGYRSRSRSRSYSPRRY

Tests used:
Assay type in all cases: binding
HCoV-OC43 gRNA and sgRNA = conditions: for target (unweighted spectral count, OC43 Probe II capture) / target (spectral count) / background (spectral count): 36 hpi; for target (unweighted spectral count, OC43 Probe II capture): type n_36_v, FDR<10%; for target (unweighted spectral count, OC43 Probe II capture) / target (unweighted spectral count): tested against no-probe control; for target (unweighted spectral count): OC43 Probe II, infected cells; for target (unweighted spectral count, OC43 Probe II) / background (unweighted spectral count, no-probe control): type n_48_v, 48 hpi; for target (unweighted spectral count, OC43 Probe II): OC43 Probe II capture on infected cells; for background (unweighted spectral count, no-probe control): no-probe control on infected cells; for target (spectral count) / background (spectral count): type s_36_m, Probe II; for target (spectral count): HCoV-OC43-infected HCT-8 cells; for background (spectral count): uninfected-probe control
SARS-CoV-2 gRNA = conditions: […]; LC-MS/MS; Probe I sample (first 199 lines of Table 2)
[1] = test system: SARS-CoV-2 gRNA and sgRNAs; conditions: for target (unweighted spectral count in RNP capture): Probe II capture, LC-MS/MS LFQ; for background (unweighted spectral count in control): no-probe control pull-down, used as background for Probe II
gRNA of HCoV-OC43 = conditions: for target (spectral count, OC43 Probe I RNP capture) / background (spectral count, no-probe control): type n_48_v: 48 hours post-infection; for target (spectral count, OC43 Probe I RNP capture): infected cells, unweighted spectral count; for background (spectral count, no-probe control): no-probe control on infected cells; for target (spectral count) / background (spectral count): type g_36_m, 36 hpi, Probe I; for target (spectral count): HCoV-OC43-infected HCT-8 cells; for background (spectral count): uninfected-probe control

| Molecule | target (unweighted spectral count, OC43 Probe II capture) (HCoV-OC43 gRNA and sgRNA) | target (unweighted spectral count) (HCoV-OC43 gRNA and sgRNA; 24 hpi (type n_24_v)) | target (unweighted spectral count, OC43 Probe II) (HCoV-OC43 gRNA and sgRNA) | background (unweighted spectral count, no-probe control) (HCoV-OC43 gRNA and sgRNA) | target (spectral count) (HCoV-OC43 gRNA and sgRNA) | background (spectral count) (HCoV-OC43 gRNA and sgRNA) | target (unweighted spectral count of the protein in the RNP capture) (SARS-CoV-2 gRNA) | target (unweighted spectral count in RNP capture) [1] | background (unweighted spectral count in control) [1] | target (spectral count, OC43 Probe I RNP capture) (gRNA of HCoV-OC43) | background (spectral count, no-probe control) (gRNA of HCoV-OC43) | target (spectral count) (gRNA of HCoV-OC43) | background (spectral count) (gRNA of HCoV-OC43) | target (unweighted spectral count) (HCoV-OC43 gRNA and sgRNA; 12 hpi (type n_12_v)) |
| --- | --- | --- | --- | --- | --- | --- | --- | --- | --- | --- | --- | --- | --- | --- |
| B1 | 9 | 7 | 11 | 1 | 9 | 1 | 10 | 25 | 1 | 11 | 1 | – | – | – |
| B2 | – | 7 | 12 | 1 | 13 | 2 | 12 | 15 | 1 | 9 | 1 | – | – | – |
| B3 | 13 | 7 | 22 | 1 | 13 | 2 | 13 | 11 | 1 | 18 | 1 | 11 | 1 | – |
| B4 | 36 | – | 53 | 6 | – | – | 78 | 61 | 1 | 49 | 6 | – | – | 15 |
| B5 | 12 | – | 13 | 2 | – | – | 12 | 9 | 1 | 12 | 2 | – | – | – |
| B6 | 31 | – | 27 | 2 | 31 | 6 | 12 | – | 1 | 26 | 2 | 28 | 5 | 10 |
| B7 | 15 | – | 12 | 2 | 15 | 2 | 13 | 8 | 1 | 10 | 2 | – | – | 5 |
